Results published in publication PMC11253611, “The chaperone PrsA2 regulates the secretion, stability, and folding of listeriolysin O during Listeria monocytogenes infection” (mBio, 2024).

Tests used:
[1] = target: recombinant listeriolysin O (without the signal sequence, 25-529) (Listeria monocytogenes 10403S) (UniProt P13128); experiment: ITC; pH 6.5, 25°C; PrsA2 (19.0 µM) or mutant titrated into LLO (0.4 µM); 20 mM MES, 100 mM NaCl, 1 mM β-mercaptoethanol, 10% glycerol; independent binding model; n counts PrsA2 monomers per LLO
[2] = target: recombinant listeriolysin O (without the signal sequence, 25-529) (Listeria monocytogenes 10403S) (UniProt P13128); experiment: MST; pH 6.5, 25°C; NHS-dye-labelled PrsA2 or mutant (20-150 nM) with serially diluted unlabelled LLO; 20 mM MES, 100 mM NaCl, 1 mM β-mercaptoethanol, 10% glycerol, 0.05% Tween 20; 1:1 model in PALMIST
[3] = target: T1, recombinant listeriolysin O (without the signal sequence, 25-529) (Listeria monocytogenes 10403S, UniProt P13128 25-529); experiment: ITC; pH 6.5, 25°C; PrsA2 (19.0 µM) or mutant titrated into LLO (0.4 µM); 20 mM MES, 100 mM NaCl, 1 mM β-mercaptoethanol, 10% glycerol; independent binding model; n counts PrsA2 monomers per LLO; conditions: both partners purified
T1 construct: also called LLO; source: E. coli BL21 (DE3*), purified (nickel-NTA, dialysis)

[4] = target: T1, recombinant listeriolysin O (without …); experiment: MST; pH 7.4, 37°C; NHS-dye-labelled PrsA2 (20-150 nM) with serially diluted unlabelled LLO; 20 mM MES, 100 mM NaCl, 1 mM β-mercaptoethanol, 10% glycerol, 0.05% Tween 20; 1:1 model in PALMIST; conditions: both partners purified
[5] = target: T1, recombinant listeriolysin O (without …); experiment: MST; pH 6.5, 37°C; NHS-dye-labelled PrsA2 (20-150 nM) with serially diluted unlabelled LLO; 20 mM MES, 100 mM NaCl, 1 mM β-mercaptoethanol, 10% glycerol, 0.05% Tween 20; 1:1 model in PALMIST; conditions: both partners purified
[6] = target: T1, recombinant listeriolysin O (without …); experiment: MST; pH 6.5, 25°C; NHS-dye-labelled PrsA2 or mutant (20-150 nM) with serially diluted unlabelled LLO; 20 mM MES, 100 mM NaCl, 1 mM β-mercaptoethanol, 10% glycerol, 0.05% Tween 20; 1:1 model in PALMIST; conditions: both partners purified
[7] = target: T1, recombinant listeriolysin O (without …); experiment: ITC; pH 6.5, 37°C; PrsA2 titrated into LLO; 20 mM MES, 100 mM NaCl, 1 mM β-mercaptoethanol, 10% glycerol; independent binding model; n counts PrsA2 monomers per LLO; conditions: both partners purified
[8] = target: T1, recombinant listeriolysin O (without …); experiment: MST; pH 7.4, 25°C; NHS-dye-labelled PrsA2 (20-150 nM) with serially diluted unlabelled LLO; 20 mM MES, 100 mM NaCl, 1 mM β-mercaptoethanol, 10% glycerol, 0.05% Tween 20; 1:1 model in PALMIST; conditions: both partners purified
[9] = target: T1, recombinant listeriolysin O (without …); experiment: ITC; pH 5.5, 37°C; PrsA2 titrated into LLO; 20 mM MES, 100 mM NaCl, 1 mM β-mercaptoethanol, 10% glycerol; independent binding model; n counts PrsA2 monomers per LLO; conditions: both partners purified
[10] = target: the molecule itself; experiment: cross-linking; 500 ng His-tagged protein with 10 µM BS3 for 1 hour at room temperature in 20 mM HEPES, 200 mM NaCl, pH 6.5; heated at 85°C, SDS-PAGE, anti-His Western blot
[11] = target: T1, recombinant listeriolysin O (without …); experiment: ITC; pH 7.4, 37°C; PrsA2 titrated into LLO at low LLO concentrations to mitigate heats of self-aggregation; 20 mM MES, 100 mM NaCl, 1 mM β-mercaptoethanol, 10% glycerol; independent binding model; n counts PrsA2 monomers per LLO; conditions: both partners purified
[12] = target: T1, recombinant listeriolysin O (without …); experiment: ITC; pH 5.5, 25°C; PrsA2 titrated into LLO; 20 mM MES, 100 mM NaCl, 1 mM β-mercaptoethanol, 10% glycerol; independent binding model; n counts PrsA2 monomers per LLO; conditions: both partners purified
[13] = target: T1, recombinant listeriolysin O (without …); experiment: ITC; pH 6.5, 25°C; PrsA2 (19.0 µM) or mutant titrated into LLO (0.4 µM); 20 mM MES, 100 mM NaCl, 1 mM β-mercaptoethanol, 10% glycerol; independent binding model; n counts PrsA2 monomers per LLO; conditions: both partners purified; remark: listed apart in the source
[14] = target: T1, recombinant listeriolysin O (without …); experiment: MST; pH 5.5, 37°C; NHS-dye-labelled PrsA2 (20-150 nM) with serially diluted unlabelled LLO; 20 mM MES, 100 mM NaCl, 1 mM β-mercaptoethanol, 10% glycerol, 0.05% Tween 20; 1:1 model in PALMIST; conditions: both partners purified
[15] = target: T1, recombinant listeriolysin O (without …); experiment: MST; pH 5.5, 25°C; NHS-dye-labelled PrsA2 (20-150 nM) with serially diluted unlabelled LLO; 20 mM MES, 100 mM NaCl, 1 mM β-mercaptoethanol, 10% glycerol, 0.05% Tween 20; 1:1 model in PALMIST; conditions: both partners purified
[16] = target: T1, recombinant listeriolysin O (without …); experiment: ITC; pH 7.4, 25°C; PrsA2 titrated into LLO; 20 mM MES, 100 mM NaCl, 1 mM β-mercaptoethanol, 10% glycerol; independent binding model; n counts PrsA2 monomers per LLO; conditions: both partners purified
[17] = target: T1, recombinant listeriolysin O (without …); experiment: MST; pH 6.5, 25°C; NHS-dye-labelled PrsA2 or mutant (20-150 nM) with serially diluted unlabelled LLO; 20 mM MES, 100 mM NaCl, 1 mM β-mercaptoethanol, 10% glycerol, 0.05% Tween 20; 1:1 model in PALMIST; conditions: both partners purified; remark: listed apart in the source
[18] = target: T1, recombinant listeriolysin O (without …); experiment: cell-based or functional assay
[19] = target: T1, recombinant listeriolysin O (without …); experiment: ITC; pH 6.5, 25°C; PrsA2 (19.0 µM) or mutant titrated into LLO (0.4 µM); 20 mM MES, 100 mM NaCl, 1 mM β-mercaptoethanol, 10% glycerol; independent binding model; n counts PrsA2 monomers per LLO; conditions: both partners purified; remark: listed apart in the source
[20] = target: T1, recombinant listeriolysin O (without …); experiment: MST; pH 6.5, 25°C; NHS-dye-labelled PrsA2 or mutant (20-150 nM) with serially diluted unlabelled LLO; 20 mM MES, 100 mM NaCl, 1 mM β-mercaptoethanol, 10% glycerol, 0.05% Tween 20; 1:1 model in PALMIST; conditions: both partners purified; remark: listed apart in the source

Molecule: PrsA2 N+C (foldase domain only, lacks the entire PPIase domain) (from UniProt Q8Y557 21-293) (domain or fragment)
- Kd [1]: 357 nM
- dH [1]: -16.6 kcal/mol
- stoichiometry N [1]: 2.08
- Kd [2]: 330 nM

B1: recombinant PrsA2 (wild type, without the signal sequence) (natural protein)
chain: CGGGGDVVKTDSGDVTKDELYDAMKDKYGSEFVQQLTFEKILGDKYKVSDEDVDKKFNEYKSQYGDQFSAVLTQSGLTEKSFKSQLKYNLLVQKATEANTDTSDKTLKKYYETWQPDITVSHILVADENKAKEVEQKLKDGEKFADLAKEYSTDTATKDNGGQLAPFGPGKMDPAFEKAAYALKNKGDISAPVKTQYGYHIIQMDKPATKTTFEKDKKAVKASYLESQLTTENMQKTLKKEYKDANVKVEDKDLKDAFKDFDGSSSSDSDSSK
notes: also called Lm PrsA2; pQE60-prsA2; source: E. coli BL21 (DE3*), purified (nickel-NTA, dialysis)
- Kd [3]: 37.7 nM
- dH [3]: -105 kcal/mol
- stoichiometry N [3]: 2.21
- Kd [4]: 39 nM
- Kd [5]: 28 nM
- Kd [6]: 12 nM
- Kd [7]: 88.3 nM
- dH [7]: -30.9 kcal/mol
- stoichiometry N [7]: 1.73
- Kd [8]: 23 nM
- Kd [9]: 330 nM
- dH [9]: -5.49 kcal/mol
- stoichiometry N [9]: 1.95
- stoichiometry N [10]: 2
- Kd [11]: 67.2 nM
- dH [11]: -12.8 kcal/mol
- stoichiometry N [11]: 2.01
- Kd [12]: 201 nM
- dH [12]: -7.93 kcal/mol
- stoichiometry N [12]: 1.96
- Ka [13]: 2.65e+07 M⁻¹
- Kd [13]: 37.8 nM
- Kd [14]: 190 nM
- Kd [15]: 150 nM
- Kd [16]: 46.1 nM
- dH [16]: -21.7 kcal/mol
- stoichiometry N [16]: 2.11

B2: PrsA2 V91T (natural protein, Listeria monocytogenes, UniProt Q8Y557 21-293, looked up)
chain: CGGGGDVVKTDSGDVTKDELYDAMKDKYGSEFVQQLTFEKILGDKYKVSDEDVDKKFNEYKSQYGDQFSATLTQSGLTEKSFKSQLKYNLLVQKATEANTDTSDKTLKKYYETWQPDITVSHILVADENKAKEVEQKLKDGEKFADLAKEYSTDTATKDNGGQLAPFGPGKMDPAFEKAAYALKNKGDISAPVKTQYGYHIIQMDKPATKTTFEKDKKAVKASYLESQLTTENMQKTLKKEYKDANVKVEDKDLKDAFKDFDGSSSSDSDSSK
modifications: Red NHS dye (NanoTemper 2nd Generation) on primary amines, in the MST experiments only
notes: Same limits and tag as m1; also called foldase domain mutant; source: E. coli BL21 (DE3*), purified (nickel-NTA, dialysis)
- Kd [17]: 2.8 nM
- LLO hemolytic activity at pH 5.5 and 30°C after 1 hour at pH 7.4 and 37°C with the chaperone mutant at a 30:1 molar ratio (protection assay), against wild-type PrsA2 or PrsA2 N+C [18]: ~2 fold
- Kd [19]: 9.64 nM
- dH [19]: -4.21 kcal/mol
- stoichiometry N [19]: 2.11

B3: PrsA2 No dimer mutant/PrsA2^M (V28A/L40A/Y41A/M44A) (natural protein, Listeria monocytogenes, UniProt Q8Y557 21-293, looked up)
chain: CGGGGDVAKTDSGDVTKDEAADAAKDKYGSEFVQQLTFEKILGDKYKVSDEDVDKKFNEYKSQYGDQFSAVLTQSGLTEKSFKSQLKYNLLVQKATEANTDTSDKTLKKYYETWQPDITVSHILVADENKAKEVEQKLKDGEKFADLAKEYSTDTATKDNGGQLAPFGPGKMDPAFEKAAYALKNKGDISAPVKTQYGYHIIQMDKPATKTTFEKDKKAVKASYLESQLTTENMQKTLKKEYKDANVKVEDKDLKDAFKDFDGSSSSDSDSSK
modifications: Red NHS dye (NanoTemper 2nd Generation) on primary amines, in the MST experiments only
notes: Same limits and tag as m1; also called PrsA2 monomer; PrsA2 dimer mutant; source: E. coli BL21 (DE3*), purified (nickel-NTA, dialysis)
- Kd [20]: ~330 nM
- Kd [17]: 190 nM
- LLO hemolytic activity at pH 5.5 and 30°C after 1 hour at pH 7.4 and 37°C with the chaperone mutant at a 30:1 molar ratio (protection assay), against wild-type PrsA2 or PrsA2 N+C [18]: ~2 fold
- Kd [19]: 206 nM
- dH [19]: -21.3 kcal/mol
- stoichiometry N [19]: 2.06
